Data taken from the supplement of paper PMC12042874.
± gives the uncertainty stated by the source.

experiment: amyloid nucleation score (Sup35N fusion, yeast selection) (log enrichment); library NNK1; higher = more nucleation; inactive = no reads after selection
In short: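 Psi-negative yeast expressed Sup35N fused to peptides of 20 random codons. They were induced 24 hours with 100 μM copper sulfate, grown 7 days at 30°C without adenine and uracil, and their plasmid inserts from input and output were Illumina-sequenced. The nucleation score is the DiMSum log enrichment of output over input reads, centred on the mode score of non-aggregating sequences. Sequences with under 100 input reads were excluded.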

Substance	amyloid nucleation score
MYYDMLSCFGEVKRS	-0.183 ± 0.79
NALRVV	-0.637 ± 0.68
NAQWKHETHIFCSAMFVTEC	0.878 ± 0.45
NCFRTSCKSGEWLQLFIRRG	0.275 ± 0.39
NCMKLLEQRGGCLQANGF	2.09 ± 0.15
NCNLSQWLIRQPKRAVSTHT	0.243 ± 0.33
NCSDQALDLQGSMSVQKIFR	-0.533 ± 0.88
NDDTLRSTKVIEHLFP	0.698 ± 1.2
NDLFMESLL	0.025 ± 0.43
NDRPMMEVGMDPTPAGVLRE	0.276 ± 0.49
NDSICIVVLS	-0.009 ± 0.84
NDTFSYCSTSGDRFGT	1.4 ± 0.24
NDTSNPVTLCHFV	0.408 ± 0.48
NDWVY	1.12 ± 0.53
NDYTELEIFCNLLRLMFWVV	-0.162 ± 0.48
NEHQVNEG	0.478 ± 0.48
NELWCKADVMS	inactive
NFCFTVFLEVNAVKMRIYF	-0.798 ± 1.1
NFFVSRLISQPHLGTYYAS	inactive
NFGNVNFVYVTWMVAESSAC	5.915 ± 0.057
NFICLHQNNMLISPKGTATR	0.672 ± 0.31
NFLFAYVLALRLFMYSVNMW	4.5 ± 0.054
NFTICLGRSTEHPGIRFDAG	-0.207 ± 1.9
NFTTVAVLRFNDNGR	4.43 ± 0.066
NGCLQRKNWLVSGSFLHFVD	-0.295 ± 0.72

Substance	amyloid nucleation score
NGFDTKYSLEGLGYSWPMLV	0.407 ± 0.41
NGHLRSINTSSARCMPAVFT	-0.112 ± 0.53
NGINSVRKDLLFYNLQR	0.107 ± 1.1
NGITLLGAVAFTVFLLYPRT	-0.215 ± 0.41
NGKGFNDVVKLRSGRRWGVR	-0.111 ± 1.4
NGKVYVELKEWDLRVVGSLR	4.44 ± 0.095
NGLWVGHLVLDGIYSA	-0.564 ± 0.33
NGNDDLSQTTEVKGYVGATL	-0.3 ± 0.37
NGRENWSDETGSMFECALYS	1.28 ± 0.44
NGVPWG	-0.21 ± 0.95
NHCCRVFMCFRIRGMYNAET	4.05 ± 0.085
NHFVALLSGIGVCSFWKKFG	-0.257 ± 1.5
NHGCQIFRG	0.667 ± 0.64
NHSLMGVSTSFWI	-0.334 ± 0.45
NHVYCVWMRMFMIYFNL	-0.17 ± 0.54
NIEVYDFYNINSMYNV	4.54 ± 0.079
NIHGDGWSYVLNAIGSELD	0.154 ± 0.43
NIIIVNSSVG	1.49 ± 0.37
NIRKPNLNTMTDRLDWSVQS	-0.102 ± 0.47
NISRAVHTRMGGYMSPTWLK	0.833 ± 0.5
NKKESGWY	-0.387 ± 0.97
NKLTSCTVSHCL	-0.125 ± 0.44
NKMGFFNTISGKRS	-0.556 ± 0.59
NKQARVRETRVGLTCVGMLG	-0.321 ± 1.2
NLALITWFESYCQTMRSAWI	-0.145 ± 0.26

Substance	amyloid nucleation score
NLDKNGYRTCNLKISYHMSR	1.28 ± 0.32
NLDYDVESRVTEVWGVLSGC	1.92 ± 0.56
NLFIPILVYHDVSRYSLRMD	6.483 ± 0.055
NLFVKFLNSRRCINFMTMFD	-0.01 ± 0.77
NLINSIGIVEAWEILPASSR	0.124 ± 1.2
NLLGYVNVQVGAVYTGNNRL	7.602 ± 0.066
NLLHESCRVLYS	0.398 ± 0.5
NLLTWRD	0.743 ± 0.64
NLNTASQNIASLGLGALVLW	0.073 ± 0.44
NLQSCLVYKVSVGNLPLIYL	-0.45 ± 1.2
NLSFLK	-0.313 ± 1.3
NLSIRCLASFCPTGESWIRV	0.971 ± 0.79
NLVRLILRCSDRAKRFLRAL	-0.218 ± 0.36
NLVRLVRIARCSMRSSVGTL	1.23 ± 0.16
NLWGSFTCYLFVIGNHWFGI	6.96 ± 0.084
NLYPDLGVLVGCHSDKWSNL	-0.115 ± 1.3
NLYYWYGTVSIWFYNRWFGV	-0.021 ± 0.66
NMLWSGITKFGGRGLKSMVV	-0.169 ± 0.88
NMQLAPTGPNTVPISYDLFP	-1.46 ± 2.4
NMRTNNVGVGLPSFMHNSSF	inactive
NMRVFWSARRQALFQWRIL	0.807 ± 0.71
NMSESCNMDTLYGYDLRQWV	0.088 ± 0.33
NNHKLAFTVVTPIEDHFRMR	0.674 ± 0.46
NNLVFHGSKHNIKVRRMEMG	-1.14 ± 2.7
NNPEINFYKVWAIKSYF	2.83 ± 0.13

Substance	amyloid nucleation score
NNSHFQSNGNIWSNNSSPSA	inactive
NNSKFMWQLSNWSWYTWHYI	-0.392 ± 0.83
NNSLISTGVRMNHVVLR	-0.091 ± 0.9
NNVRVDKACGEAMEDEKRVV	0.672 ± 0.37
NNVRYT	inactive
NNYLCAEWFVTGVSTPLTTS	0.735 ± 0.55
NNYVYLSLSFPVGTVC	-0.377 ± 0.61
NPAITGRFSYCT	0.456 ± 1.2
NPSFNPWNDHHYCTSGMCML	0.562 ± 0.81
NQDFLTLALKWRCECFHTKL	-0.247 ± 1.9
NQDMVNMIHETFIVLARVVI	-0.059 ± 0.38
NQDVTPVMRVVLDSSPTLSS	2 ± 0.6
NQIFVQCSVGKAWDRSKSVD	4.12 ± 0.081
NQTNFDVSLY	4.64 ± 0.055
NRAECSFVCTEYVNICK	-0.313 ± 0.43
NRCVAGRWPNSFVVLGHTFN	-0.211 ± 0.71
NRDYTVFKTRVFKSIFRIR	0.505 ± 0.78
NREIPQWIGFVY	1.12 ± 0.65
NRGSRTVLWDGNWAGTNTMP	-0.154 ± 0.47
NRLCDK	1.25 ± 0.35
NRLVMLLLTLSNGSCEKVRD	2.95 ± 0.094
NRNISAIGACTGCTNMVFYS	5.64 ± 0.11
NRPGEINKWSTLIDGVTRFS	0.335 ± 0.41
NRRVCEVR	-0.148 ± 1.1
NRSGGTSAIDYHSWLVYHAG	-0.161 ± 0.28

Substance	amyloid nucleation score
NSFVTVFLRWKYFVMSDMWP	-0.139 ± 0.25
NSIYHYIVNTFYLNFMGWIE	1.25 ± 0.79
NSKCSLIQCTGPLVRERRSY	0.058 ± 0.31
NSLCYVVWVVVMTVNYYHHW	0.557 ± 0.5
NSMNLNG	inactive
NSRSGLMNLVEKSLLYKMLY	-0.007 ± 0.48
NSRSVVLMSVDFIILGYDKM	3.56 ± 0.17
NSSPNKCFAGSQGSFISFWD	-0.599 ± 0.62
NSWVSINMCNVFGPHCMWTV	7.21 ± 0.074
NSYLSND	inactive
NTAFSERTWLVRFKMVPRWK	0.647 ± 0.83
NTDYSQAGVCGSRCLNSAL	1.54 ± 0.69
NTISMFDMLQISKTSQHQFA	0.387 ± 0.45
NTLYYRSFRAIQLPGGENQN	-1.09 ± 1.9
NTQNRSEVNQGVVGQVR	-0.378 ± 0.36
NTVRNMSVNELFVSFDRGWF	4.83 ± 0.063
NVGVRLMCVSWSVHDQLA	1.66 ± 0.35
NVHWRDVGGMLFRRNNIRRI	5.222 ± 0.052
NVIFPTYRFVRFPSYMTLGW	inactive
NVIGISATNASLSLVLISVI	-0.509 ± 0.32
NVIID	inactive
NVIRTQQSR	0.208 ± 0.52
NVISRSLVMYMYKEERPASA	0.031 ± 0.27
NVLGLFQLRDSTQNGAMYIL	0.076 ± 0.62
NVLTVCCVGLIKSSVSLIEN	8.418 ± 0.065

Substance	amyloid nucleation score
NVRGSWVIMCYFTYVWMLGR	0.017 ± 0.35
NVRYFLWGNAETIYL	0.769 ± 0.29
NVSISVR	-0.054 ± 0.38
NVSKDS	-0.063 ± 0.54
NVVYMYSSASEYVWHRRLGF	-0.993 ± 0.43
NVWSKWCERGNSDPIVPQAA	-0.458 ± 0.35
NVYAMCTITMNYSVVVTHSC	3.35 ± 0.15
NVYSIYIINYMAYKVFWDMI	-0.116 ± 0.29
NWGCFQYSGTGNRLGTNAPV	-0.999 ± 0.68
NWIVCRPDAGMQPRTNNLIV	-0.536 ± 0.58
NWLFRQCGSQMMVYVFEFFY	-0.776 ± 0.59
NWNCICFLDPISRDTLYPQ	8.489 ± 0.046
NWVLHIRDCRAKALPLITDW	-0.034 ± 0.45
NYFSQKWFTTGRTPRMMDMW	-0.007 ± 0.32
NYHMIVRLASLKKQW	0.109 ± 0.46
NYICMGP	1.38 ± 0.41
NYITCC	1.37 ± 0.1
NYLTHG	0.311 ± 0.37
PAALAWTNFLKASYDLKMGA	-0.587 ± 1.3
PAGNNYDNNVSNNGTCKEFW	0.294 ± 0.28
PANSSMSSNY	0.091 ± 1.5
PCALGECRLVNSVISRGFGR	0.38 ± 1.2
PCLSDMRLTSAEKGFV	0.455 ± 0.69
PCSFNA	-0.267 ± 0.72
PCTPYLSTYVPLNEK	-0.017 ± 0.31

Substance	amyloid nucleation score
PDDNMMVLGVSSADNLLIRL	0.579 ± 0.66
PDNRAINVFTLPVAVS	0.71 ± 0.44
PEAPPLLIVSGFN	1.2 ± 0.79
PECTSVRATGIGDWWEDRGA	-1.46 ± 2.7
PELAGRLSVRDLLW	0.059 ± 0.47
PESCANSWSMSYGAFGAVYC	inactive
PETIW	1.49 ± 0.5
PEVSIFFLFLGMVYLMWQWV	-0.839 ± 0.7
PFINVLSICLLIWALVPVDS	inactive
PFQYADGTFF	4 ± 0.15
PFRSFLCRVIRALGLY	0.212 ± 0.95
PFVDFVVSRNYLRL	0.572 ± 0.61
PFYRNLFSWAGYILLCGCHE	-0.775 ± 0.75
PGFFWHICFG	4.55 ± 0.082
PGMNSRCCA	0.48 ± 0.72
PGRIYGRSGCYRV	0.482 ± 0.69
PGSGCNVFKL	-0.403 ± 0.25
PHAHDTWYGYA	-1.13 ± 2.4
PHVFRFSFPTLILIGSFNFC	3.14 ± 0.12
PIDAPISQLGLCMFGYQEGL	-0.999 ± 1.3
PIFMCHSFFQAIICWLSSHL	inactive
